Test results published in US20160257710A1, “SELECTIVE INHIBITORS OF PROTEINASE 3” (INSERM (INSTITUT NATIONAL DE LA SANTÉ ET LA RECHERCHE …, priority 2013, published 2016).
Where no end group is shown, it is not given here. [ ]: non-standard residue; d: D form. AlaP = not defined here

Columns and labels:
[1] = Stability of inhibitors in neutrophil lysate (preincubation before adding substrates); assay type: in vitro ADME, human; conditions: one hour preincubation of neutrophil lysate-inhibitor mixture
From the text: (§1) We first studied the stability and the selectivity of compound 1, 2 and their biotinylated derivatives in a lysate of purified human neutrophils. […] Further, PR3 was selectively inactivated in the neutrophil lysate as shown by western blotting using biotinylated inhibitors.

CatG [2] = target: T1, CatG (Homo sapiens, UniProt P08311); assay: Inhibition of protease activity in crude lung secretions of patients (IPF, cystic fibrosis); assay type: biochemical; conditions: 30 min incubation, IPF and CF samples
T1 sequence (P08311 21-244): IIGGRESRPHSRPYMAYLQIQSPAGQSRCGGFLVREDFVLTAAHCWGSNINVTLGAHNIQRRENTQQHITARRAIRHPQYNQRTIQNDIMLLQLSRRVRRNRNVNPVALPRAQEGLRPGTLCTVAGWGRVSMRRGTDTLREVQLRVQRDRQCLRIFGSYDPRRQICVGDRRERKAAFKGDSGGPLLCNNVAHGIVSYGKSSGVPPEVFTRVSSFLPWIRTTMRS

PR3 [3] = target: T2, PR3 (Homo sapiens, UniProt P24158); assay: Residual activity of purified protease with FRET substrate in presence of increasing amounts of compound; assay type: biochemical; conditions: PR3 1 nM final, 30 min incubation
T2 construct: in a lysate of purified human neutrophils; endogenous in cells; host or cells: purified human neutrophils (lysate)
T2 sequence (P24158 28-248): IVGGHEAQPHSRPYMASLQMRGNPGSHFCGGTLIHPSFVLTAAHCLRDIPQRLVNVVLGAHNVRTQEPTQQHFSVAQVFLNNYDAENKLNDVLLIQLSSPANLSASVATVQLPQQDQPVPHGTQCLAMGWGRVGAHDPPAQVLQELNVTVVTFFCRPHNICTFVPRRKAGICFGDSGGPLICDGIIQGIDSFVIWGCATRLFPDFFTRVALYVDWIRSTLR
From the text: (§2) Phosphonate inhibitors and their biotinylated and fluorescent derivatives were synthesized, purified and controlled by mass spectrometry as reported. Their purity was checked by HPLC (data not shown). Purified Ac-Asp-Tyr-Asp-Ala^P(O—C6H4-4-Cl)2 (compound 1) and Ac-Pro-Tyr-Asp-Ala^P(O—C6H4-4-Cl)2 (compound 2) were first assayed for their inhibitory properties by measuring the residual activity of the human neutrophil serine proteases PR3, HNE and CatG in the presence of increasing amounts of each compound. We used for this purpose the FRET substrates that we developed previously for each protease (18). An almost complete inhibition of PR3 (1 nM final) was obtained after a 30 min incubation time with 20 μM of compound 1 (FIG. 1) and 0.3 μM of compound 2 (FIG. 2). Recombinant PR3K99L, […], HNE and CatG were used in the same experimental conditions. […] This emphasizes the importance of the S2 and S4 subsites to discriminate between PR3 and HNE specificities. Significant inhibition of HNE was obtained using about 100 times more Ac-Pro-Tyr-Asp-Ala^P(O—C6H4-4-Cl)2 than required to inhibit PR3. […] We confirmed this observation kinetically by measuring the second order rate constants kobs/l by competition experiments between the PR3 substrate and each inhibitor (17). As expected the second order rate constant kobs/l for compound 2 was about 100 times greater than that for compound 1 (see Table 1).

CatG [4] = target: T1, CatG; assay: as above; assay type: biochemical; conditions: CatG 1 nM, same experimental conditions as PR3
From the text: as §2

Elastase = target: T3, Elastase (Homo sapiens, UniProt P08246); assay: Protease inhibition assay, second order rate constant kobs/[I] (method of Tian and Tsou); assay type: biochemical; conditions: n.s where no significant inhibition
T3 sequence (P08246 30-267): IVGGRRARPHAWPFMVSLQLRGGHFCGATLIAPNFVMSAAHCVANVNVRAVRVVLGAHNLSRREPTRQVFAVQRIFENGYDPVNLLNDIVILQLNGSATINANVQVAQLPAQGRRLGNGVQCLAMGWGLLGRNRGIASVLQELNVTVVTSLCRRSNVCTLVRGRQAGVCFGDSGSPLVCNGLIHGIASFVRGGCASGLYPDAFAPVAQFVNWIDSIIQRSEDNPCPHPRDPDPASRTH
Method: The inactivation of proteases by substrate analog inhibitors in the presence of the substrate by competition for the enzyme-binding site, was measured by the method of Tian and Tsou (17). In this system, product formation in the presence of an irreversible inhibitor approaches an asymptote, as described by
log([P∞]−[P])=log [P∞]−0.43A[Y]t
where [P∞] is the concentration of product formed at time approaching infinity, [P] is the concentration of product at time t, [Y] is the inhibitor concentration, and A is the apparent inhibition rate constant in the presence of the substrate. A is given by
where k+0 is the rate constant for association of the inhibitor with the enzyme, K^−1 is the inverted Michaelis constant, and [S] the substrate concentration. The apparent inhibition rate constant A is the slope of a plot of log([P∞]−[P]) against t, to give the second-order rate constant of inhibition k+0

PR3 [5] = target: T2, PR3; assay: Inhibition of PR3 in a lysate of purified human neutrophils; assay type: biochemical; conditions: conditions as with purified proteases
From the text: as §1

Ac-Pro-Tyr-Asp-Ala^P(O—C6H4-4-Cl)2 (Ac-PYD[AlaP]; not fully specified (C-terminus); printed as Ac-Pro-Tyr-Asp-Ala^P(O—C6H4-4-Cl)2; reading uncertain; also: C-terminal Ala as phosphonate analogue (Ala^P)) [Compound 2]
inhibition potential after preincubation in neutrophil lysate [1]: No loss of the inhibition potential | CatG activity in crude lung secretions (CatG [2]): remained unchanged | concentration giving almost complete inhibition of PR3 (PR3 [3]): 0.3 µM | inhibition of CatG (CatG [4]): no significant inhibition | Elastase kobs/[I] (Elastase): n.s | PR3 activity in neutrophil lysate (PR3 [5]): totally inactivated
